The numbers were not newly measured in paper PMC4081073, which cites them from elsewhere.

The series addresses EcoRI restriction endonuclease (Escherichia coli) (UniProt P00642).

Usually Kd stands for the equilibrium constant for the complex coming apart. Consider “EcoRI restriction endonuclease (from UniProt P00642)”, for which the Kd is 100 nM.
